Assays:
SHP2-C SH2 = assay: SH2 binding enrichment of the phosphorylated peptide, bacterial display (enrichment ratio); higher = better substrate or ligand; peptides without Tyr show the background
Grb2 SH2 = Grb2 SH2 (UniProt P62993); assay: as above
c-Src SH2 = assay: as above
Fer (mouse) = assay: phosphorylation enrichment, bacterial display (enrichment ratio); higher = better substrate or ligand; peptides without Tyr show the background
EPHB2 = EPHB2 (UniProt P29323); assay: as above
MERTK = MERTK (UniProt Q12866); assay: as above
AncSZ = assay: as above
Jak2 = Jak2 (UniProt O60674); assay: as above
Chain of Jak2 (O60674 whole entry, looked up): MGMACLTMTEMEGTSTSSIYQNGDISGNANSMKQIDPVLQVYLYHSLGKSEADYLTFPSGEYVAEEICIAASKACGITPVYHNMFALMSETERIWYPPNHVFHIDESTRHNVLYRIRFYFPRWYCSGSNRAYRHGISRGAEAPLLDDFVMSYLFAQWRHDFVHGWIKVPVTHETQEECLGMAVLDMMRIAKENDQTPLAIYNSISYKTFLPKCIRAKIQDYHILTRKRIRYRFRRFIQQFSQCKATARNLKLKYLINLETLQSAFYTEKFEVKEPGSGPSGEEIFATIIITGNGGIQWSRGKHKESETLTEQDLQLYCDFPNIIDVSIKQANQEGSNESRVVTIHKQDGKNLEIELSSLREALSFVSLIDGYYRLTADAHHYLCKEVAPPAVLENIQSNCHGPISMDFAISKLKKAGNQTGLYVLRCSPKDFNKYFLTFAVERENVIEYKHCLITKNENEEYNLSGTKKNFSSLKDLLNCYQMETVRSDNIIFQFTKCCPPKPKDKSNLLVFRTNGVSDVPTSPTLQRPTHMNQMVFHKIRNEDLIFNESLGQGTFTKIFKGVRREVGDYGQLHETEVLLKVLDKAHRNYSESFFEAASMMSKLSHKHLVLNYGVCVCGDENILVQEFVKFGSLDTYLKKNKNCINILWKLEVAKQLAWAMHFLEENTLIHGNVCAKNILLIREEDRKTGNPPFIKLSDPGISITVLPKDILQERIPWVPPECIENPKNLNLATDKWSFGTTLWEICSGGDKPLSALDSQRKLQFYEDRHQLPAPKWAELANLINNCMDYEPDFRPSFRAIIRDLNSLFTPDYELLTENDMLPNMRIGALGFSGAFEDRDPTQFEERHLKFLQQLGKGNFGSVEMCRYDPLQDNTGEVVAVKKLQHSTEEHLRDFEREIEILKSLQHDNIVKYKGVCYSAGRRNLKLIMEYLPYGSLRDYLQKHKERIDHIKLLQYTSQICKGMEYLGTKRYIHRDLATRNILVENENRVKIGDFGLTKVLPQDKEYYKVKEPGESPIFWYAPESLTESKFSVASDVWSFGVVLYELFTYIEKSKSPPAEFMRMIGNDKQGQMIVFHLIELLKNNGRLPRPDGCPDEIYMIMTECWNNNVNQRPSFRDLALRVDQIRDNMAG

Fes = Fes (UniProt P07332); assay: as above
FGFR1 = FGFR1 (UniProt P11362); assay: as above
Chain of FGFR1 (P11362 whole entry, looked up): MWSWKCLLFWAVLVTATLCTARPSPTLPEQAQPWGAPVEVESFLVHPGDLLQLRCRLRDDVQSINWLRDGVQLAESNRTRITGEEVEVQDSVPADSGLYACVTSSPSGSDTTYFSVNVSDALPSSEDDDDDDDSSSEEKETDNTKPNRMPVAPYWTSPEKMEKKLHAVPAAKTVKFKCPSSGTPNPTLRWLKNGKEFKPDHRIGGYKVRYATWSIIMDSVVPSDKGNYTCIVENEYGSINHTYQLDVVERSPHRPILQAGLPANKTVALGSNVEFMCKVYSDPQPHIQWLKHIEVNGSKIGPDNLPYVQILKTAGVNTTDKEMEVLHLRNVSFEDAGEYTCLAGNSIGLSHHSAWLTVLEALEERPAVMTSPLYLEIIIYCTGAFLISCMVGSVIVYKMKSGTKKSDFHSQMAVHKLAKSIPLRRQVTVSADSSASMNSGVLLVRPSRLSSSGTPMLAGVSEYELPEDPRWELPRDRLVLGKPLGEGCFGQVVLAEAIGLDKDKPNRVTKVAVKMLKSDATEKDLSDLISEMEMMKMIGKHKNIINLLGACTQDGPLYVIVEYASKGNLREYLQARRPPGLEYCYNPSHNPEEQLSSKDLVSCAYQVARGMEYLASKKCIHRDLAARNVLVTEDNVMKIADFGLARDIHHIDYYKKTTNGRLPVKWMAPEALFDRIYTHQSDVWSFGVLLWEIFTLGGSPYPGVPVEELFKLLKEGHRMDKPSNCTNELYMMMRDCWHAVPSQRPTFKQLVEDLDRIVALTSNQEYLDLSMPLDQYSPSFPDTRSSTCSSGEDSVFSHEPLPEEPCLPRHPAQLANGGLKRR

Fyn = Fyn (UniProt P06241); assay: as above
Chain of Fyn (P06241 whole entry, looked up): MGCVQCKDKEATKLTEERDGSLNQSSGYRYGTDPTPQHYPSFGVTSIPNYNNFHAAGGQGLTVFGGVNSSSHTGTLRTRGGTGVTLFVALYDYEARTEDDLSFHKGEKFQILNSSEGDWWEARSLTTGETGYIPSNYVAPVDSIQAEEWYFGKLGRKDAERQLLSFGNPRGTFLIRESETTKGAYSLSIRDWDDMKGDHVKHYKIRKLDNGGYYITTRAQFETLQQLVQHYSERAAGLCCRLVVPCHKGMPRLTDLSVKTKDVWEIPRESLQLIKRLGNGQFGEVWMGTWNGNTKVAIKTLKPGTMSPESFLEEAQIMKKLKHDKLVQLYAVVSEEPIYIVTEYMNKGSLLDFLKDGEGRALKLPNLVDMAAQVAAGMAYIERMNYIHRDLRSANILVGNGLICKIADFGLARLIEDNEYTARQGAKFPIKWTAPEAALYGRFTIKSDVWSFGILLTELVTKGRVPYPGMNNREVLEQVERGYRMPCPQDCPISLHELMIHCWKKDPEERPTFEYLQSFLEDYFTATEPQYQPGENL

EPHB1 = EPHB1 (UniProt P54762); assay: as above
Chain of EPHB1 (P54762 whole entry, looked up): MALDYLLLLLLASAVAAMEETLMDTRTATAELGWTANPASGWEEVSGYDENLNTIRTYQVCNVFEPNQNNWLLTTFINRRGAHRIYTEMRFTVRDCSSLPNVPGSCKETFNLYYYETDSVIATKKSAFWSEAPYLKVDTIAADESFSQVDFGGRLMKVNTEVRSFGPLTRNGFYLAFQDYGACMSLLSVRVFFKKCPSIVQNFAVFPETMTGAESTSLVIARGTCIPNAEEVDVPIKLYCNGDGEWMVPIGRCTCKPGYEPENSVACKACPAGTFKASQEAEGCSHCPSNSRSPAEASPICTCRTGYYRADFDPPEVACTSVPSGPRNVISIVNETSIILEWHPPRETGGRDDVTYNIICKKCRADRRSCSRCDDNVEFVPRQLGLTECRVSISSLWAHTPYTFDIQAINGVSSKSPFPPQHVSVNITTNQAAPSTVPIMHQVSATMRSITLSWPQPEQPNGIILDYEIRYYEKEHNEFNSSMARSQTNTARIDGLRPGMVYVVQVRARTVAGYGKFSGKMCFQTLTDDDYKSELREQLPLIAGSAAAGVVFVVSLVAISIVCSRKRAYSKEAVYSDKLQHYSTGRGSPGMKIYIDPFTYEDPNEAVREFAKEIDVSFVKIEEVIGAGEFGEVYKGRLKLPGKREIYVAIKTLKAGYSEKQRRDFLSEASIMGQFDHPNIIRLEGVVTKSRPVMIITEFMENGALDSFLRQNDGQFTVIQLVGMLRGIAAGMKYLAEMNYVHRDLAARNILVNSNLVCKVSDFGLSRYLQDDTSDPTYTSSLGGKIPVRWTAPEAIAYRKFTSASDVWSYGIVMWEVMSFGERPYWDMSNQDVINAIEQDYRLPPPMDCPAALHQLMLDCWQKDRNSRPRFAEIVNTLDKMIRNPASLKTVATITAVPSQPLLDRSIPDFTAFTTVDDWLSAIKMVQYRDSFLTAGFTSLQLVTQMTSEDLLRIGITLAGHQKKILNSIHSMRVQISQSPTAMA

FGFR3 = FGFR3 (UniProt P22607); assay: as above
Chain of FGFR3 (P22607 whole entry, looked up): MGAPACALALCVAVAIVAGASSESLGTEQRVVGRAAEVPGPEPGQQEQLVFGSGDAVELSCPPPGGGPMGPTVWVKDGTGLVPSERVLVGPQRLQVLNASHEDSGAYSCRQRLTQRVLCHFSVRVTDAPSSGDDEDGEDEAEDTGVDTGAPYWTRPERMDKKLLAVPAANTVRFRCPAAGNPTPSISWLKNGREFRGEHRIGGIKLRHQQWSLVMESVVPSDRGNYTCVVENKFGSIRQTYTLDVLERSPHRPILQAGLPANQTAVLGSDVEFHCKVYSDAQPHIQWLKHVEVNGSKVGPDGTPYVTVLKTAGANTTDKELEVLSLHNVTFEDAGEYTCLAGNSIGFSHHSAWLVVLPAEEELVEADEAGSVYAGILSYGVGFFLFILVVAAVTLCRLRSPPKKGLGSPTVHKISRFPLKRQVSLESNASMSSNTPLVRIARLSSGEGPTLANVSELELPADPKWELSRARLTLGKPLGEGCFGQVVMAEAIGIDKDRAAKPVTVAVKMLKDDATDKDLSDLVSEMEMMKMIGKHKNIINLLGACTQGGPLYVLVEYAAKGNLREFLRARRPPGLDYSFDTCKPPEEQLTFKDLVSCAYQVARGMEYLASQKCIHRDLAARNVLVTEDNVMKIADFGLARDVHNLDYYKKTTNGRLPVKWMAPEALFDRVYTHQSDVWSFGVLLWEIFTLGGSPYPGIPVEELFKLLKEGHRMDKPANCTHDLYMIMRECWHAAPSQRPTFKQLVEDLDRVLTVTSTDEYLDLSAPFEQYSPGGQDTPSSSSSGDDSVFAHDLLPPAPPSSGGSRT

c-Abl (mouse) = assay: as above
Hck = Hck (UniProt P08631); assay: as above
Chain of Hck (P08631 whole entry, looked up): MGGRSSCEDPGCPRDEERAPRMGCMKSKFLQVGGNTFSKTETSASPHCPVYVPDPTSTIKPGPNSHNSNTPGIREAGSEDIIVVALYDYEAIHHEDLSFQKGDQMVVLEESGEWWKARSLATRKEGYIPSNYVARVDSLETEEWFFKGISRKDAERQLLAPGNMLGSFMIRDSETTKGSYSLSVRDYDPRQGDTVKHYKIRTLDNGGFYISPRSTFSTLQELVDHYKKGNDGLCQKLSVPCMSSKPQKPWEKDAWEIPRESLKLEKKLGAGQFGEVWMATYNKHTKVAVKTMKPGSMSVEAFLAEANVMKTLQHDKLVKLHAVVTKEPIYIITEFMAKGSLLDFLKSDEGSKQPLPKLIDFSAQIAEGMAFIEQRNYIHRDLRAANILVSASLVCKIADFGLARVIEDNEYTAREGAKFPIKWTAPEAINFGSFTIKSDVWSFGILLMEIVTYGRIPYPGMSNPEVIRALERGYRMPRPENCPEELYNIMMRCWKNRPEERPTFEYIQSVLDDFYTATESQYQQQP

c-Src = assay: as above
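For SH2 binding enrichment of the phosphorylated peptide, bacterial display in this document: peptide library displayed on the E. coli surface as eCPX fusions, selected cells deep-sequenced, score is each peptide's frequency after selection divided by its frequency in the input.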
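For phosphorylation enrichment, bacterial display in this document: 11-residue human phosphosite peptides and single-mutation variants displayed on the E. coli surface, counted by deep sequencing, each peptide's frequency after selection divided by its frequency in the unselected input library; frequency after pTyr selection over input frequency; kinase dosed for 20-30% of maximal phosphorylation in three min.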

Chain of Grb2 SH2 (P62993 whole entry, looked up): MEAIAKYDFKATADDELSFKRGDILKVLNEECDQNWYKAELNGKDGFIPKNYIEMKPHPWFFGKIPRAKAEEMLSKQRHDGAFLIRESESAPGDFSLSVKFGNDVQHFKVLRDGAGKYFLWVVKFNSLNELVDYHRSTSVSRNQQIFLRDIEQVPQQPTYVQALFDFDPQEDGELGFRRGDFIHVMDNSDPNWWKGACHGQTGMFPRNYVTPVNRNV

Row | Sequence | SH2 binding enrichment (SHP2-C SH2) | SH2 binding enrichment (Grb2 SH2) | SH2 binding enrichment (c-Src SH2) | phosphorylation enrichment (Fer (mouse)) | phosphorylation enrichment (EPHB2) | phosphorylation enrichment (MERTK) | phosphorylation enrichment (AncSZ) | phosphorylation enrichment (Jak2) | phosphorylation enrichment (Fes) | phosphorylation enrichment (FGFR1) | phosphorylation enrichment (Fyn) | phosphorylation enrichment (EPHB1) | phosphorylation enrichment (FGFR3) | phosphorylation enrichment (c-Abl (mouse)) | phosphorylation enrichment (Hck) | phosphorylation enrichment (c-Src)
1 | SLTGAYTSGIP [POM121C_Y378] | 0.718 | 0.828 | 0.448 | 0.306 | 0.393 | 0.349 | 0.443 | 0.44 | 0.533 | 0.494 | 0.376 | 0.299 | 0.408 | 0.52 | 0.357 | 0.326
2 | SNKELYEKFMI | 0.705 | 0.79 | 0.526 | 10.2 | 0.539 | 1.51 | 0.859 | 0.894 | 0.872 | 0.507 | 1.14 | 0.571 | 0.543 | 0.559 | 1.45 | 1.78
3 | SNTFLYQLVFD [EXO1_Y284_N279S] | 1.05 | 1.17 | 0.833 | 4.62 | 3.93 | 5.86 | 1.56 | 1.36 | 1.49 | 1.69 | 1.61 | 5.47 | 1.9 | 0.784 | 2.63 | 2.22
4 | SPLEVYVDKSQ [FLNA_Y373_F370L] | 0.585 | 0.859 | 0.477 | 0.521 | 0.716 | 0.47 | 1.2 | 1.14 | 1.25 | 0.631 | 0.469 | 0.653 | 0.74 | 0.723 | 0.523 | 0.508
5 | SPPILYSFFLD [FCRL6_Y239_YF] | 1.01 | 1.21 | 0.74 | 1.84 | 1.97 | 9.91 | 1.19 | 1.18 | 1.14 | 1.4 | 2.28 | 2.85 | 1.38 | 0.901 | 2.08 | 3.23
6 | SQAPGYSYTAA [CYCS_Y47_G42S] | 0.631 | 0.763 | 1.07 | 0.499 | 0.408 | 0.45 | 0.637 | 0.765 | 0.666 | 0.593 | 0.454 | 0.466 | 0.43 | 0.708 | 0.422 | 0.594
7 | SQQTFYRVSNM [ABCD1_Y181_YF] | 0.762 | 0.82 | 0.525 | 0.39 | 0.507 | 0.388 | 0.564 | 0.546 | 0.741 | 0.433 | 0.409 | 0.31 | 0.575 | 0.492 | 0.513 | 0.408
8 | SRGLAYPARSA [LEMD2_Y122_P126S] | 0.596 | 0.723 | 0.552 | 0.381 | 0.334 | 0.35 | 0.501 | 0.312 | 0.529 | 0.288 | 0.316 | 0.244 | 0.275 | 0.382 | 0.25 | 0.431
9 | SRKSEYLLPVA [MYLK_Y611] | 0.786 | 0.789 | 0.418 | 0.44 | 0.512 | 0.413 | 0.748 | 0.509 | 0.602 | 0.392 | 0.619 | 0.504 | 0.569 | 0.93 | 0.465 | 0.526
10 | SRPTQYSSFAC [SPEM2_Y104_S108A] | 2.18 | 0.984 | 0.825 | 0.435 | 0.494 | 0.519 | 0.66 | 0.733 | 0.727 | 0.482 | 0.563 | 0.362 | 0.533 | 0.736 | 0.511 | 0.665
11 | SSAETYSRMCL [NBEAL2_Y1835_R1839C] | 0.486 | 0.73 | 0.545 | 1.01 | 0.616 | 0.561 | 0.84 | 0.695 | 0.851 | 0.426 | 0.526 | 0.649 | 0.669 | 0.849 | 0.859 | 0.708
12 | SSDPDYLAAVD [GLB1_Y154] | 0.742 | 1.02 | 0.482 | 0.604 | 0.74 | 0.487 | 1.34 | 1.12 | 1.27 | 0.56 | 0.656 | 0.693 | 0.885 | 0.814 | 0.631 | 0.55
13 | SSEILYHIIKG [CDH17_Y489_K486E] | 1.18 | 1.2 | 2.4 | 1.08 | 0.684 | 8.04 | 1.38 | 1.69 | 0.875 | 10.9 | 2.85 | 0.806 | 8.65 | 10.4 | 5.02 | 4.11
14 | SSGSRYQPLAS [NCAPD2_Y1325_T1321S] | 0.843 | 0.977 | 0.583 | 0.392 | 0.431 | 0.43 | 0.529 | 0.531 | 0.558 | 0.468 | 0.384 | 0.366 | 0.433 | 0.488 | 0.442 | 0.453
15 | SSQVLYKLEQS [THADA_Y701] | 0.678 | 0.893 | 0.527 | 0.431 | 0.592 | 0.442 | 0.628 | 0.731 | 0.726 | 0.434 | 0.48 | 0.476 | 0.507 | 0.496 | 0.487 | 0.706
16 | STEVIYLPRRK [STK11_Y36_Q37L] | 0.586 | 0.546 | 0.336 | 0.526 | 0.588 | 0.618 | 0.624 | 0.568 | 0.589 | 0.52 | 0.7 | 0.419 | 0.53 | 0.466 | 0.515 | 0.591
17 | SVKVFYKKCWF [EPHA7_Y202_S207F_YF] | 0.765 | 0.764 | 0.441 | 0.544 | 0.518 | 0.425 | 1.06 | 1.01 | 1.23 | 0.533 | 0.568 | 0.782 | 0.833 | 0.816 | 0.513 | 0.478

Row | Sequence | SH2 binding enrichment (SHP2-C SH2) | SH2 binding enrichment (Grb2 SH2) | SH2 binding enrichment (c-Src SH2) | phosphorylation enrichment (Fer (mouse)) | phosphorylation enrichment (EPHB2) | phosphorylation enrichment (MERTK) | phosphorylation enrichment (AncSZ) | phosphorylation enrichment (Jak2) | phosphorylation enrichment (Fes) | phosphorylation enrichment (FGFR1) | phosphorylation enrichment (Fyn) | phosphorylation enrichment (EPHB1) | phosphorylation enrichment (FGFR3) | phosphorylation enrichment (c-Abl (mouse)) | phosphorylation enrichment (Hck) | phosphorylation enrichment (c-Src)
18 | SVMAEYGLYGA [VSX2_Y219] | 0.609 | 0.908 | 0.593 | 3.74 | 1.53 | 0.502 | 0.709 | 0.59 | 0.882 | 0.529 | 6.65 | 0.732 | 0.57 | 0.628 | 6.45 | 4.66
19 | SVMAEYGLYRA [VSX2_Y219_G223R] | 0.702 | 0.734 | 0.447 | 0.512 | 1.28 | 0.552 | 0.951 | 0.569 | 0.862 | 0.537 | 7.16 | 0.701 | 0.578 | 0.945 | 6.46 | 6.41
20 | SVTCKYSPALN [TP53_Y126_T125K] | 0.654 | 0.752 | 0.363 | 0.392 | 0.457 | 0.386 | 0.638 | 0.629 | 0.795 | 0.429 | 0.344 | 0.431 | 0.515 | 0.458 | 0.431 | 0.454
21 | SVTCRYSPALN [TP53_Y126_T125R] | 0.539 | 0.663 | 0.366 | 0.437 | 0.446 | 0.514 | 0.864 | 0.805 | 0.938 | 0.413 | 0.397 | 0.508 | 0.561 | 0.611 | 0.392 | 0.427
22 | SVTRTYSPALN [TP53_Y126_C124R] | 0.579 | 0.961 | 0.424 | 0.485 | 0.378 | 0.313 | 0.445 | 0.429 | 0.522 | 0.394 | 0.384 | 0.313 | 0.418 | 0.427 | 0.345 | 0.399
23 | SVVEPYEPPEV [TP53_Y220_V218E] | 0.726 | 1.13 | 0.608 | 0.462 | 0.533 | 0.442 | 1.29 | 0.985 | 1.1 | 0.521 | 0.741 | 0.541 | 0.654 | 0.601 | 0.472 | 0.4
24 | SVVGPYEPPEV [TP53_Y220_V218G] | 0.618 | 0.935 | 0.523 | 0.498 | 0.526 | 0.409 | 1.14 | 0.855 | 1.05 | 0.432 | 0.403 | 0.579 | 0.69 | 0.728 | 0.505 | 0.441
25 | SVVVPYEPPEA [TP53_Y220_V225A] | 0.675 | 0.967 | 0.795 | 0.593 | 0.536 | 0.54 | 1.28 | 1.1 | 1.19 | 0.496 | 0.483 | 0.61 | 0.738 | 0.859 | 0.54 | 0.574
26 | SVVVPYEPPVV [TP53_Y220_E224V] | 0.627 | 0.709 | 0.606 | 0.457 | 0.574 | 0.397 | 1 | 0.731 | 0.921 | 0.446 | 0.453 | 0.518 | 0.61 | 0.659 | 0.437 | 0.437
27 | SVVVPYEQPEV [TP53_Y220_P222Q] | 0.856 | 0.962 | 3.08 | 0.568 | 0.715 | 0.544 | 1.37 | 1.24 | 1.28 | 0.604 | 0.532 | 0.652 | 0.774 | 1.03 | 0.612 | 0.69
28 | TAVNGYAFGGG [ECHS1_Y137_A132T] | 0.093 | 0.683 | 0.399 | 0.62 | 0.531 | 0.462 | 0.558 | 0.737 | 0.723 | 0.404 | 0.593 | 0.417 | 0.922 | 0.592 | 0.419 | 0.561
29 | TCFDKYTGNTY [FN1_Y101] | 0.754 | 0.924 | 0.472 | 0.534 | 0.63 | 0.345 | 1.3 | 1.01 | 1.16 | 0.463 | 0.511 | 0.519 | 0.648 | 0.717 | 0.516 | 0.584
30 | TEFIQYVRRKN [MAX_Y73_M74V_YF] | 0.609 | 0.863 | 0.492 | 0.483 | 0.551 | 0.639 | 0.66 | 0.521 | 0.626 | 0.74 | 0.675 | 0.48 | 0.653 | 0.435 | 0.559 | 0.473
31 | TEHMAYCPIQC [SHC4_Y403_Q400H] | 0.685 | 0.821 | 1.2 | 0.557 | 0.524 | 0.416 | 0.72 | 0.778 | 0.821 | 0.458 | 0.466 | 0.489 | 0.638 | 0.661 | 0.805 | 0.764
32 | TEQDPYNNIVC [MMUT_Y364_R369C] | 0.814 | 0.86 | 1.52 | 0.627 | 0.572 | 0.528 | 1.14 | 0.952 | 1.22 | 0.659 | 0.555 | 0.555 | 0.666 | 0.784 | 0.566 | 0.642
33 | TESNNYIFTTL [FAM83B_Y637_K640T_YF] | 0.821 | 0.922 | 0.502 | 0.722 | 0.641 | 0.612 | 1.12 | 1.11 | 1.27 | 1.02 | 0.539 | 0.687 | 0.912 | 0.982 | 0.571 | 0.537

Reference: the supplement of paper PMC10065799, “High-throughput profiling of sequence recognition by tyrosine kinases and SH2 domains using bacterial peptide display” (eLife, 2023)
